Measured values taken from publication PMC10030467 (Nature Communications, 2023).

B1: TRIM72 W277A (natural protein, human, UniProt Q6ZMU5-1 2-477, looked up)
chain: SAAPGLLHQELSCPLCLQLFDAPVTAECGHSFCRACLGRVAGEPAADGTVLCPCCQAPTRPQALSTNLQLARLVEGLAQVPQGHCEEHLDPLSIYCEQDRALVCGVCASLGSHRGHRLLPAAEAHARLKTQLPQQKLQLQEACMRKEKSVAVLEHQLVEVEETVRQFRGAVGEQLGKMRVFLAALEGSLDREAERVRGEAGVALRRELGSLNSYLEQLRQMEKVLEEVADKPQTEFLMKYCLVTSRLQKILAESPPPARLDIQLPIISDDFKFQVARKMFRALMPALEELTFDPSSAHPSLVVSSSGRRVECSEQKAPPAGEDPRQFDKAVAVVAHQQLSEGEHYWEVDVGDKPRWALGVIAAEAPRRGRLHAVPSQGLWLLGLREGKILEAHVEAKEPRALRSPERRPTRIGLYLSFGDGVLSFYDASDADALVPLFAFHERLPRPVYPFFDVCWHDKGKNAQPLLLVGPEGAEA
notes: TRIM72, human, residues 2-477, point mutant; primers are in Supplementary Data 3; source: E. coli Rosetta (DE3), purified; not shown: His-Sumo, N-terminal, cleaved
B2: TRIM72 R180A (natural protein, human, UniProt Q6ZMU5-1 2-477, looked up)
chain: SAAPGLLHQELSCPLCLQLFDAPVTAECGHSFCRACLGRVAGEPAADGTVLCPCCQAPTRPQALSTNLQLARLVEGLAQVPQGHCEEHLDPLSIYCEQDRALVCGVCASLGSHRGHRLLPAAEAHARLKTQLPQQKLQLQEACMRKEKSVAVLEHQLVEVEETVRQFRGAVGEQLGKMAVFLAALEGSLDREAERVRGEAGVALRRELGSLNSYLEQLRQMEKVLEEVADKPQTEFLMKYCLVTSRLQKILAESPPPARLDIQLPIISDDFKFQVWRKMFRALMPALEELTFDPSSAHPSLVVSSSGRRVECSEQKAPPAGEDPRQFDKAVAVVAHQQLSEGEHYWEVDVGDKPRWALGVIAAEAPRRGRLHAVPSQGLWLLGLREGKILEAHVEAKEPRALRSPERRPTRIGLYLSFGDGVLSFYDASDADALVPLFAFHERLPRPVYPFFDVCWHDKGKNAQPLLLVGPEGAEA
notes: TRIM72, human, residues 2-477, point mutant; source: E. coli Rosetta (DE3), purified; not shown: His-Sumo, N-terminal, cleaved
B3: TRIM72 M179E (natural protein, human, UniProt Q6ZMU5-1 2-477, looked up)
chain: SAAPGLLHQELSCPLCLQLFDAPVTAECGHSFCRACLGRVAGEPAADGTVLCPCCQAPTRPQALSTNLQLARLVEGLAQVPQGHCEEHLDPLSIYCEQDRALVCGVCASLGSHRGHRLLPAAEAHARLKTQLPQQKLQLQEACMRKEKSVAVLEHQLVEVEETVRQFRGAVGEQLGKERVFLAALEGSLDREAERVRGEAGVALRRELGSLNSYLEQLRQMEKVLEEVADKPQTEFLMKYCLVTSRLQKILAESPPPARLDIQLPIISDDFKFQVWRKMFRALMPALEELTFDPSSAHPSLVVSSSGRRVECSEQKAPPAGEDPRQFDKAVAVVAHQQLSEGEHYWEVDVGDKPRWALGVIAAEAPRRGRLHAVPSQGLWLLGLREGKILEAHVEAKEPRALRSPERRPTRIGLYLSFGDGVLSFYDASDADALVPLFAFHERLPRPVYPFFDVCWHDKGKNAQPLLLVGPEGAEA
notes: as for B2
B4: TRIM72 M179A (natural protein, human, UniProt Q6ZMU5-1 2-477, looked up)
chain: SAAPGLLHQELSCPLCLQLFDAPVTAECGHSFCRACLGRVAGEPAADGTVLCPCCQAPTRPQALSTNLQLARLVEGLAQVPQGHCEEHLDPLSIYCEQDRALVCGVCASLGSHRGHRLLPAAEAHARLKTQLPQQKLQLQEACMRKEKSVAVLEHQLVEVEETVRQFRGAVGEQLGKARVFLAALEGSLDREAERVRGEAGVALRRELGSLNSYLEQLRQMEKVLEEVADKPQTEFLMKYCLVTSRLQKILAESPPPARLDIQLPIISDDFKFQVWRKMFRALMPALEELTFDPSSAHPSLVVSSSGRRVECSEQKAPPAGEDPRQFDKAVAVVAHQQLSEGEHYWEVDVGDKPRWALGVIAAEAPRRGRLHAVPSQGLWLLGLREGKILEAHVEAKEPRALRSPERRPTRIGLYLSFGDGVLSFYDASDADALVPLFAFHERLPRPVYPFFDVCWHDKGKNAQPLLLVGPEGAEA
notes: as for B2
B5: TRIM72 R169A (natural protein, human, UniProt Q6ZMU5-1 2-477, looked up)
chain: SAAPGLLHQELSCPLCLQLFDAPVTAECGHSFCRACLGRVAGEPAADGTVLCPCCQAPTRPQALSTNLQLARLVEGLAQVPQGHCEEHLDPLSIYCEQDRALVCGVCASLGSHRGHRLLPAAEAHARLKTQLPQQKLQLQEACMRKEKSVAVLEHQLVEVEETVRQFAGAVGEQLGKMRVFLAALEGSLDREAERVRGEAGVALRRELGSLNSYLEQLRQMEKVLEEVADKPQTEFLMKYCLVTSRLQKILAESPPPARLDIQLPIISDDFKFQVWRKMFRALMPALEELTFDPSSAHPSLVVSSSGRRVECSEQKAPPAGEDPRQFDKAVAVVAHQQLSEGEHYWEVDVGDKPRWALGVIAAEAPRRGRLHAVPSQGLWLLGLREGKILEAHVEAKEPRALRSPERRPTRIGLYLSFGDGVLSFYDASDADALVPLFAFHERLPRPVYPFFDVCWHDKGKNAQPLLLVGPEGAEA
notes: as for B2
B6: TRIM72 F272A (natural protein, human, UniProt Q6ZMU5-1 2-477, looked up)
chain: SAAPGLLHQELSCPLCLQLFDAPVTAECGHSFCRACLGRVAGEPAADGTVLCPCCQAPTRPQALSTNLQLARLVEGLAQVPQGHCEEHLDPLSIYCEQDRALVCGVCASLGSHRGHRLLPAAEAHARLKTQLPQQKLQLQEACMRKEKSVAVLEHQLVEVEETVRQFRGAVGEQLGKMRVFLAALEGSLDREAERVRGEAGVALRRELGSLNSYLEQLRQMEKVLEEVADKPQTEFLMKYCLVTSRLQKILAESPPPARLDIQLPIISDDAKFQVWRKMFRALMPALEELTFDPSSAHPSLVVSSSGRRVECSEQKAPPAGEDPRQFDKAVAVVAHQQLSEGEHYWEVDVGDKPRWALGVIAAEAPRRGRLHAVPSQGLWLLGLREGKILEAHVEAKEPRALRSPERRPTRIGLYLSFGDGVLSFYDASDADALVPLFAFHERLPRPVYPFFDVCWHDKGKNAQPLLLVGPEGAEA
notes: as for B2
B7: TRIM72 W277E (natural protein, human, UniProt Q6ZMU5-1 2-477, looked up)
chain: SAAPGLLHQELSCPLCLQLFDAPVTAECGHSFCRACLGRVAGEPAADGTVLCPCCQAPTRPQALSTNLQLARLVEGLAQVPQGHCEEHLDPLSIYCEQDRALVCGVCASLGSHRGHRLLPAAEAHARLKTQLPQQKLQLQEACMRKEKSVAVLEHQLVEVEETVRQFRGAVGEQLGKMRVFLAALEGSLDREAERVRGEAGVALRRELGSLNSYLEQLRQMEKVLEEVADKPQTEFLMKYCLVTSRLQKILAESPPPARLDIQLPIISDDFKFQVERKMFRALMPALEELTFDPSSAHPSLVVSSSGRRVECSEQKAPPAGEDPRQFDKAVAVVAHQQLSEGEHYWEVDVGDKPRWALGVIAAEAPRRGRLHAVPSQGLWLLGLREGKILEAHVEAKEPRALRSPERRPTRIGLYLSFGDGVLSFYDASDADALVPLFAFHERLPRPVYPFFDVCWHDKGKNAQPLLLVGPEGAEA
notes: as for B2
B8: TRIM72 R169E (natural protein, human, UniProt Q6ZMU5-1 2-477, looked up)
chain: SAAPGLLHQELSCPLCLQLFDAPVTAECGHSFCRACLGRVAGEPAADGTVLCPCCQAPTRPQALSTNLQLARLVEGLAQVPQGHCEEHLDPLSIYCEQDRALVCGVCASLGSHRGHRLLPAAEAHARLKTQLPQQKLQLQEACMRKEKSVAVLEHQLVEVEETVRQFEGAVGEQLGKMRVFLAALEGSLDREAERVRGEAGVALRRELGSLNSYLEQLRQMEKVLEEVADKPQTEFLMKYCLVTSRLQKILAESPPPARLDIQLPIISDDFKFQVWRKMFRALMPALEELTFDPSSAHPSLVVSSSGRRVECSEQKAPPAGEDPRQFDKAVAVVAHQQLSEGEHYWEVDVGDKPRWALGVIAAEAPRRGRLHAVPSQGLWLLGLREGKILEAHVEAKEPRALRSPERRPTRIGLYLSFGDGVLSFYDASDADALVPLFAFHERLPRPVYPFFDVCWHDKGKNAQPLLLVGPEGAEA
notes: as for B2

Target: the molecule itself
Test: SEC-MALS; point mutants, 100 μL at 1 mg/mL; Superdex 200 increase, 20 mM Tris-HCl pH 8.0, 200 mM NaCl, 0.3 mM TCEP

Stoichiometry N, 2:
B1, B2, B3, B4, B5, B6, B7, B8
